Experiments:
[1] = target: T1, human serum albumin (human, UniProt P02768 25-609); assay: Biacore, immobilised HSA, pH 7.4
T1 construct: mature; Bought protein; biotinylated in the Octet and HTRF assays; also called HSA; HuSA
Description: Affinities for mouse, human, and cynomolgus serum were also measured at pH 7.4 for four (4) AFFIMER® binders using surface plasmon resonance (SPR) (FIG. 5, Table 5). […] A concentration titration of AFFIMER® monomers was run as analyte at a flow rate of 30 μl/min or 60 μl/min. Fc2-1, Fc3-1 and Fc4-1 kinetic data was blank subtracted and fit to a 1:1 Langmuir binding model (BIAcore Evalution software; GE) to calculate KD values.
The AFFIMER® polypeptides were produced and purified from E. coli as described in Example 3.

[2] = target: T1, human serum albumin; assay: SPR (Biacore), immobilised HSA, Affimer analyte
[3] = target: T2, human PD-L1-Fc (R&D Systems) chimeric protein (human, UniProt Q9NZQ7 19-239); assay: SPR (Biacore T200), PD-L1-Fc amine-coupled to CM5, Affimer analyte
T2 construct: Bought reagent; also called rhPD-L1-Fc; huPD-L1; Fc part of the bought chimera not given, not described
T2 sequence (Q9NZQ7 19-239, change not shown): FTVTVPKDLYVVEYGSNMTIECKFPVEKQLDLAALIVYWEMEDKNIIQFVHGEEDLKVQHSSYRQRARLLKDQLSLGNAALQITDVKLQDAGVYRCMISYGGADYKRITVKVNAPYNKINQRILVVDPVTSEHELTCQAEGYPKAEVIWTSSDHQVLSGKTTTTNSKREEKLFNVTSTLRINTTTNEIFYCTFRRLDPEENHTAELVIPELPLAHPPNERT
Description: (§1) ILF dimer production from E. coli was performed as described in Example 3. Briefly, protein was purified using three stages: affinity capture, IEX, and preparative SEC. […] To analyze PD-L1-Fc binding kinetics, a Biacore T200 kinetic analysis was performed using running buffer HBS-EP+ and series S sensor CM5 (GE Healthcare) chip Fc2 immobilized with PD-L1-Fc (R&D Systems) in 10 mM sodium acetate pH 4.0 using amine coupling reagents (GE Healthcare). The concentration titration of ILF AFFIMER® polypeptides was run as analyte at a flow rate of 30 μl/min. […] with 3 mM NaOH (GE healthcare) for 20 seconds at 20 μl/min flow rate. The Fc2-1 data blank was subtracted and fit to a 1:1 Langmuir binding model (Biacore evaluation software; GE) to calculate an apparent KD value.

[4] = target: T2, human PD-L1-Fc (R&D Systems) chimeric …; assay: SPR (Biacore T200), PD-L1-Fc amine-coupled to CM5, Affimer analyte; apparent KD
Description: as §1

[5] = target: T1, human serum albumin; assay: SPR (Biacore) binding response to HSA at pH 7.4, Affimer at 50 nM
Source text: Final clones were sequence-verified, produced from E. coli, and affinity purified as described in Example 3.

Row | koff [3] | kon [3] | Kd [4] | binding response [5] | Binder | other results
1 | – | – | – | – | HSA-41 DI (designed binder, also called ILF homodimer with flexible linker; ILF dimer HSA-41 DI) MIPRGLSEAKPATPEIQEIVDKVKPQLEEKTNETYGKLEAVQYKTQVLANFFQRRWPGSTNYYIKVRAGDNKYMHLKVFNGPWKFRNTDRGADRVLTGYQVDKNKDDELTGFGGGGSGGGGSGGGGSGGGGSGGGGSGGGGSMIPRGLSEAKPATPEIQEIVDKVKPQLEEKTNETYGKLEAVQYKTQVLANFFQRRWPGSTNYYIKVRAGDNKYMHLKVFNGPWKFRNTDRGADRVLTGYQVDKNKDDELTGFHHHHHH | Kd [1]: 0.201 nM; koff [1]: 0.000959 s⁻¹; kon [1]: 4.77e+06 M⁻¹ s⁻¹
2 | 0.00763 s⁻¹ | 1.57e+06 M⁻¹ s⁻¹ | 4.86 nM | – | AVA04-236 XT7 (designed binder) MIPRGLSEAKPATPEIQEIVDKVKPQLEEKTNETYGKLEAVQYKTQVLAKEHGPDSWWSTNYYIKVRAGDNKYMHLKVFNGPQEKNQWVEEADRVLTGYQVDKNKDDELTGFGGGGSGGGGSGGGGSGGGGSGGGGSGGGGSMIPRGLSEAKPATPEIQEIVDKVKPQLEEKTNETYGKLEAVQYKTQVLANFFQRRWPGSTNYYIKVRAGDNKYMHLKVFNGPWKFRNTDRGADRVLTGYQVDKNKDDELTGFHHHHHH | Kd [2]: 13.3 nM; koff [2]: 0.00336 s⁻¹; kon [2]: 253000 M⁻¹ s⁻¹
3 | 0.00354 s⁻¹ | 796000 M⁻¹ s⁻¹ | 4.45 nM | – | AVA04-269 XT11 (designed binder) MIPRGLSEAKPATPEIQEIVDKVKPQLEEKTNETYGKLEAVQYKTQVLAKEYGPEEWWSTNYYIKVRAGDNKYMHLKVFNGPGDYEQVLIHADRVLTGYQVDKNKDDELTGFGGGGSGGGGSGGGGSGGGGSGGGGSGGGGSMIPRGLSEAKPATPEIQEIVDKVKPQLEEKTNETYGKLEAVQYKTQVLANFFQRRWPGSTNYYIKVRAGDNKYMHLKVFNGPWKFRNTDRGADRVLTGYQVDKNKDDELTGFHHHHHH | Kd [2]: 15.5 nM; koff [2]: 0.00234 s⁻¹; kon [2]: 151000 M⁻¹ s⁻¹
4 | – | – | – | 26.1 | HSA-41 D89A (designed binder) MIPRGLSEAKPATPEIQEIVDKVKPQLEEKTNETYGKLEAVQYKTQVLANFFQRRWPGSTNYYIKVRAGDNKYMHLKVFNGPWKFRNTARGADRVLTGYQVDKNKDDELTGFHHHHHH | –
5 | – | – | – | 27.9 | HSA-41 T88A (designed binder) MIPRGLSEAKPATPEIQEIVDKVKPQLEEKTNETYGKLEAVQYKTQVLANFFQRRWPGSTNYYIKVRAGDNKYMHLKVFNGPWKFRNADRGADRVLTGYQVDKNKDDELTGFHHHHHH | –
6 | – | – | – | 26.6 | HSA-41 F85A (designed binder) MIPRGLSEAKPATPEIQEIVDKVKPQLEEKTNETYGKLEAVQYKTQVLANFFQRRWPGSTNYYIKVRAGDNKYMHLKVFNGPWKARNTDRGADRVLTGYQVDKNKDDELTGFHHHHHH | –
7 | – | – | – | 6.5 | HSA-41 G58A (designed binder) MIPRGLSEAKPATPEIQEIVDKVKPQLEEKTNETYGKLEAVQYKTQVLANFFQRRWPASTNYYIKVRAGDNKYMHLKVFNGPWKFRNTDRGADRVLTGYQVDKNKDDELTGFHHHHHH | –
8 | – | – | – | 17.8 | HSA-41 G91A (designed binder) MIPRGLSEAKPATPEIQEIVDKVKPQLEEKTNETYGKLEAVQYKTQVLANFFQRRWPGSTNYYIKVRAGDNKYMHLKVFNGPWKFRNTDRAADRVLTGYQVDKNKDDELTGFHHHHHH | –
9 | – | – | – | 11.9 | HSA-41 R54A (designed binder) MIPRGLSEAKPATPEIQEIVDKVKPQLEEKTNETYGKLEAVQYKTQVLANFFQARWPGSTNYYIKVRAGDNKYMHLKVFNGPWKFRNTDRGADRVLTGYQVDKNKDDELTGFHHHHHH | –
10 | – | – | – | 23.5 | HSA-41 K84A (designed binder) MIPRGLSEAKPATPEIQEIVDKVKPQLEEKTNETYGKLEAVQYKTQVLANFFQRRWPGSTNYYIKVRAGDNKYMHLKVFNGPWAFRNTDRGADRVLTGYQVDKNKDDELTGFHHHHHH | –
11 | – | – | – | 17.2 | HSA-41 R90A (designed binder) MIPRGLSEAKPATPEIQEIVDKVKPQLEEKTNETYGKLEAVQYKTQVLANFFQRRWPGSTNYYIKVRAGDNKYMHLKVFNGPWKFRNTDAGADRVLTGYQVDKNKDDELTGFHHHHHH | –
12 | – | – | – | 13 | HSA-41 N50A (designed binder) MIPRGLSEAKPATPEIQEIVDKVKPQLEEKTNETYGKLEAVQYKTQVLAAFFQRRWPGSTNYYIKVRAGDNKYMHLKVFNGPWKFRNTDRGADRVLTGYQVDKNKDDELTGFHHHHHH | –
13 | – | – | – | 19.1 | HSA-41 R86A (designed binder) MIPRGLSEAKPATPEIQEIVDKVKPQLEEKTNETYGKLEAVQYKTQVLANFFQRRWPGSTNYYIKVRAGDNKYMHLKVFNGPWKFANTDRGADRVLTGYQVDKNKDDELTGFHHHHHH | –
14 | – | – | – | 23.5 | HSA-41 Q53A (designed binder) MIPRGLSEAKPATPEIQEIVDKVKPQLEEKTNETYGKLEAVQYKTQVLANFFARRWPGSTNYYIKVRAGDNKYMHLKVFNGPWKFRNTDRGADRVLTGYQVDKNKDDELTGFHHHHHH | –
15 | – | – | – | 23.2 | HSA-41 P57A (designed binder) MIPRGLSEAKPATPEIQEIVDKVKPQLEEKTNETYGKLEAVQYKTQVLANFFQRRWAGSTNYYIKVRAGDNKYMHLKVFNGPWKFRNTDRGADRVLTGYQVDKNKDDELTGFHHHHHH | –
16 | – | – | – | 25.8 | HSA-41 N87A (designed binder) MIPRGLSEAKPATPEIQEIVDKVKPQLEEKTNETYGKLEAVQYKTQVLANFFQRRWPGSTNYYIKVRAGDNKYMHLKVFNGPWKFRATDRGADRVLTGYQVDKNKDDELTGFHHHHHH | –
17 | 0.00695 s⁻¹ | 1.52e+06 M⁻¹ s⁻¹ | 4.57 nM | – | AVA04-236 XT8 (designed binder) MIPRGLSEAKPATPEIQEIVDKVKPQLEEKTNETYGKLEAVQYKTQVLAKEHGPDSWWSTNYYIKVRAGDNKYMHLKVFNGPQEKNQWVEEADRVLTGYQVDKNKDDELTGFAEAAAKEAAAKEAAAKEAAAKEAAAKEAAAKMIPRGLSEAKPATPEIQEIVDKVKPQLEEKTNETYGKLEAVQYKTQVLANFFQRRWPGSTNYYIKVRAGDNKYMHLKVFNGPWKFRNTDRGADRVLTGYQVDKNKDDELTGFHHHHHH | Kd [2]: 9.5 nM; koff [2]: 0.00252 s⁻¹; kon [2]: 267000 M⁻¹ s⁻¹
18 | 0.00431 s⁻¹ | 1.14e+06 M⁻¹ s⁻¹ | 3.8 nM | – | AVA04-269 XT12 (designed binder) MIPRGLSEAKPATPEIQEIVDKVKPQLEEKTNETYGKLEAVQYKTQVLAKEYGPEEWWSTNYYIKVRAGDNKYMHLKVFNGPGDYEQVLIHADRVLTGYQVDKNKDDELTGFAEAAAKEAAAKEAAAKEAAAKEAAAKEAAAKMIPRGLSEAKPATPEIQEIVDKVKPQLEEKTNETYGKLEAVQYKTQVLANFFQRRWPGSTNYYIKVRAGDNKYMHLKVFNGPWKFRNTDRGADRVLTGYQVDKNKDDELTGFHHHHHH | Kd [2]: 12.9 nM; koff [2]: 0.00228 s⁻¹; kon [2]: 177000 M⁻¹ s⁻¹
19 | 0.0109 s⁻¹ | 3.68e+06 M⁻¹ s⁻¹ | 2.95 nM | – | AVA04-261 (designed binder) MIPRGLSEAKPATPEIQEIVDKVKPQLEEKTNETYGKLEAVQYKTQVLAHAYGPRDWDSTNYYIKVRAGDNKYMHLKVFNGPPADHVLEEAADRVLTGYQVDKNKDDELTGF | –
20 | 0.00977 s⁻¹ | 1.8e+06 M⁻¹ s⁻¹ | 5.43 nM | – | AVA04-236 (designed binder) MIPRGLSEAKPATPEIQEIVDKVKPQLEEKTNETYGKLEAVQYKTQVLAKEHGPDSWWSTNYYIKVRAGDNKYMHLKVFNGPQEKNQWVEEADRVLTGYQVDKNKDDELTGF | –
21 | 0.00345 s⁻¹ | 2.05e+06 M⁻¹ s⁻¹ | 1.68 nM | – | AVA04-269 (designed binder) MIPRGLSEAKPATPEIQEIVDKVKPQLEEKTNETYGKLEAVQYKTQVLAKEYGPEEWWSTNYYIKVRAGDNKYMHLKVFNGPGDYEQVLIHADRVLTGYQVDKNKDDELTGF | –
22 | – | – | – | – | HSA-41 BK (designed binder, also called ILF homodimer with rigid linker) MIPRGLSEAKPATPEIQEIVDKVKPQLEEKTNETYGKLEAVQYKTQVLANFFQRRWPGSTNYYIKVRAGDNKYMHLKVFNGPWKFRNTDRGADRVLTGYQVDKNKDDELTGFAEAAAKEAAAKEAAAKEAAAKEAAAKEAAAKMIPRGLSEAKPATPEIQEIVDKVKPQLEEKTNETYGKLEAVQYKTQVLANFFQRRWPGSTNYYIKVRAGDNKYMHLKVFNGPWKFRNTDRGADRVLTGYQVDKNKDDELTGFHHHHHH | Kd [1]: 0.128 nM; koff [1]: 0.000994 s⁻¹; kon [1]: 7.74e+06 M⁻¹ s⁻¹

Source: patent US20230272011A1 (AVACTA LIFE SCIENCES, published 2023)
